Source: publication PMC11099023

Target: Asparaginase-like 1 protein (ASRGL1), recombinant full-length (UniProt Q7L266)
Experiment: differential scanning fluorimetry (protein thermal shift assay); recombinant ASRGL1 with increasing concentrations of TDP-43 in PBS (10 mM phosphate, 150 mM NaCl, pH 7.4), 30 min at 25 °C, ramp 25 to 99 °C; Tm plotted against TDP-43 concentration, inflection point of a sigmoidal fit …

Sequence of UniProt Q7L266 (Q7L266 whole entry): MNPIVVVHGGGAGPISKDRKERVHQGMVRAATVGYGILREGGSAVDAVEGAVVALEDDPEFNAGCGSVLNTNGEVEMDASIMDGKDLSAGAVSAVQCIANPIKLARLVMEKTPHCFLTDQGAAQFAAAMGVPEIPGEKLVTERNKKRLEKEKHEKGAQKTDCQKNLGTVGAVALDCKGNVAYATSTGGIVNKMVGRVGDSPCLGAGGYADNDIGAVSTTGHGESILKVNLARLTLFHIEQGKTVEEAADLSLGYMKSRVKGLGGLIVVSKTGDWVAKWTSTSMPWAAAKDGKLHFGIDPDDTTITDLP

EC50: 36.1 nM | shift in Tm of ASRGL1 with 1 μM TDP-43: 10 °C
Substance: TAR DNA-binding protein 43 (TDP-43), native form, recombinant full-length (from UniProt Q13148 1-414) (natural protein)
